In test [1] the target is T1, HIV-1 CH505 transmitted/founder gp120 Env (HIV-1).
T1 construct: domain: gp120; also called CH505.TF gp120; CH505 TF gp120 Env
Kind of test: direct-binding ELISA (OD450), panel 'CH505.TF gp120'. For orientation: ELISA stands for enzyme-linked immunosorbent assay.

Test [2] has as its target T2, Histones.
T2 construct: Mixture of proteins
Briefly: AtheNA, Ab 6.25 ug/ml.
Excerpt: (§1) AtheNA Multi-Lyte ANA Plus Test System is one such assay. This is luminex-based assay, which is also used to screen patient sera.

In test [3] the target is T3, Sm (Smith antigen).
T3 construct: Protein complex
Briefly: AtheNA, Ab 6.25 ug/ml.
Excerpt: as §1

Test [4] has as its target T4, Scl-70 (UniProt P11387 1-765).
T4 sequence: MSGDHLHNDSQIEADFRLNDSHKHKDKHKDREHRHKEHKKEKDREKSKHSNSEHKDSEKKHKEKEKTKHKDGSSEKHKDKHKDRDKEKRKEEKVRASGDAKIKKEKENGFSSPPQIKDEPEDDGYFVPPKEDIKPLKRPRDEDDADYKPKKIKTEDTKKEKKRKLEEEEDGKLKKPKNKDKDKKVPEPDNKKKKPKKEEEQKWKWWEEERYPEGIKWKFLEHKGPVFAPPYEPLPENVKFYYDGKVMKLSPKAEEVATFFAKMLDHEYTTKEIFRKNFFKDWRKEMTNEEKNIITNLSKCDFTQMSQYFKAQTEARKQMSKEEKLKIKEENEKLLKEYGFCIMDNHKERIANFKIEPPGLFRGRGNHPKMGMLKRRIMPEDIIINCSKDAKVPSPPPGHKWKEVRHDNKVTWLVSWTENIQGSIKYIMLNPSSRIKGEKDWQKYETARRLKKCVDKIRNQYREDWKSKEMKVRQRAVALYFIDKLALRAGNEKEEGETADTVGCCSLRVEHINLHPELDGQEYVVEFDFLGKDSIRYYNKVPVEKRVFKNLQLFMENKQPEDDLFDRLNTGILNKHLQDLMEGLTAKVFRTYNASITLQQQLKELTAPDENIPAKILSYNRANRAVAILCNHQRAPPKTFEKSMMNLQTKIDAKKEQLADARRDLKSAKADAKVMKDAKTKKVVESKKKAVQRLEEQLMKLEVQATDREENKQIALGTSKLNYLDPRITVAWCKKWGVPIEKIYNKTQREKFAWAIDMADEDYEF
Kind of test: AtheNA, Ab 6.25 ug/ml.
Excerpt: as §1

Test [5] has as its target T5, SSA.
T5 construct: also called SSA (Ro)
Briefly: AtheNA, Ab 6.25 ug/ml.
Excerpt: as §1

The target in test [6] is CH505 TF loop D mutant M8 Env (pseudovirus) (HIV-1). Kind of test: cell-based or functional assay.
The target of test [7] is T6, STUB-1 (human, UniProt Q9UNE7 1-303).
T6 sequence: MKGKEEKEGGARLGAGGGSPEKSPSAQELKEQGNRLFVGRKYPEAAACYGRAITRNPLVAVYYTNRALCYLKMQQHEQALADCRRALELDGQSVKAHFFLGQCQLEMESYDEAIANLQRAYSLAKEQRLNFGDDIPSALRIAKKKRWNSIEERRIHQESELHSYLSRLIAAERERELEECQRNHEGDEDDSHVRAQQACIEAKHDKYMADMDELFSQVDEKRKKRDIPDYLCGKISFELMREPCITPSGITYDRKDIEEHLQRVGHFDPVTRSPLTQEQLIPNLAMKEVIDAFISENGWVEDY
Briefly: ProtoArray human protein microarray.

B1: CH493 (antibody, V domains shown)
VH: QVRLLQYGGGVKRPGASMTISCVASGYNFNDYYIHWVRQAPGQGLELMGWIDPSGGRTDYAGAFGDRVSMYRDKSMNTLYMDLRSLRSGDTAMYYCVRNVGTAGSLLHYDHWGLGVMVTVSS
VL: EIVLTQSPATLSVSPGERVTLSCRASQSVRNNLAWYRQKRGQAPRLLIYGASTRATGIPARFSGSGSGTEFTLTISSMQSEDFAVYYCQQYNNWWTFGQGTKVEIK
notes: also called CH235.9; DH493
Turning to B1, the EC50 (read off the curve) (as a rule, the concentration that produces a half-maximal response) in test [1] was roughly 0.7 µg/mL. The AtheNA signal amounted to 174 in test [2], 46 in test [3], 17 in test [4] and 22 in test [5]. Moreover, the “neutralization IC50, TZM-bl pseudovirus assay” value in test [6] was determined as 0.66 µg/mL.

B2: CH557 (antibody, V domains shown)
VH: QVRLAQYGGGVKRLGATMTLSCVASGYTFNDYYIHWVRQAPGQGFELLGYIDPANGRPDYAGALRERLSFYRDKSMETLYMDLRSLRYDDTAMYYCVRNVGTAGSLLHYDHWGSGSPVIVSS
VL: EIVLTQSPATLSASPGERVTLTCRASRSVRNNVAWYQHKGGQSPRLLIYDASTRAAGVPARFSGSASGTEFTLAISNLESEDFTVYFCLQYNNWWTFGQGTRVDIK
notes: also called CH235.12; CH557_4A/293i
For the molecule B2, the binding result in test [7] is “no binding”.

For the origin of these results see patent publication US10450368 (DUKE UNIVERSITY, dated 2019).
